Data taken from paper PMC9640981, “Plant vernalization proteins contain unusual PHD superdomains without histone H3 binding activity” (The Journal of Biological Chemistry, 2022).
“Also recorded” adds a separate entry of the source.

Key:
[1] = tested on: ^15N-labeled Pd VIN3_123-326; test: NMR (BEST-TROSY) interaction of negatively charged polymers with Pd VIN3 PHD superdomain; assay type: binding, Phoenix dactylifera
Protocol: (§1) For NMR spectroscopy, A. thaliana VIN3_150-208 and P. dactilyfera VIN3_123-326 were expressed in M9 minimal medium supplemented with 0.4% glucose, antibiotics, trace elements, 25 ml overnight culture, and 2 g of ^15N-H4Cl per liter of expression culture. Cultures were grown and processed essentially as described before. NMR samples containing 50 μM ^15N-labeled VIN3_150-208 or VIN3_123-326 were prepared in aqueous buffer (25 mM Tris pH 8, 150 mM NaCl, and 1 mM DTT). The 50 μM ^15N-labeled VIN3_150-208 or VIN3_123-326 was incubated with 0.5 mM histone H3 peptides resuspended in 25 mM Tris pH 8, 150 mM NaCl, and 1 mM DTT for >30 min before measurement. Spectra were recorded on a Bruker Avance-III spectrometer operating at 600 MHz ^1H frequency and equipped with a 5 mm inverse detection cryogenic probe. BEST-TROSY shift correlation experiments ([45]) were acquired with 256 × 1024 points in t1 and t2, respectively. Spectra were processed in TopSpin version 3.2 (Bruker), with linear prediction in t1, giving a digital resolution of 2.2 and 8.2 Hz/point in the processed data.
Generation of nucleic acid probes for NMR
FLC DNA was used as a template for the design of a dsDNA 60-mer probe, generated by annealing the sequence (5′ […] 3′) and its complementary oligonucleotide for 2 min at 95 °C. […]

VIN3 PHD superdomain = test: Interaction of negatively charged polymers with VIN3 PHD superdomain (NMR and ITC, summary); assay type: binding, Phoenix dactylifera; settings: listed as RNA
Protocol: ITC was carried out at 25 °C with an iTC 200 Microcalorimeter (GE Healthcare) in 25 mM Tris pH 8, 150 mM NaCl, and 1 mM DTT. Titrations consisted of 19 consecutive 2 μl injections of 0.25 to 1 mM peptide solution (following a preinjection of 0.5 μl) into 50 μM protein (VIN3PHD, VIN3_123-326, VIN3_116-307, OBE1_193-372, or pVP13 VIN3_130-299) at time intervals of 120 s. ITC data were analyzed using MicroCal PEAQ-IT Analysis Software (Malvern Sciences).
as §1, with “Spectra were processed in TopSpin version 3.2 (Bruker), with linear prediction in t1, giving a digital resolution of 2.2 and 8.2 Hz/point in the processed data.” left out

B1: 63-mer RNA: FLC RNA transcript, 5′ GGGAAAGAGAAAACGCUUAGUAUCUCCGGCGACUUGAACCCAAACCUGAGGAUCAAAUUAGGG 3′ (nucleic acid)
chain: GGGAAAGAGAAAACGCUUAGUAUCUCCGGCGACUUGAACCCAAACCUGAGGAUCAAAUUAGGG
modifications: RNA, backbone not given here; further chemistry not fully specified
- perturbation of BEST-TROSY spectrum (in words) ([1]; 50 μM ^15N-labeled VIN3_123-326, 4 μM 60-mer dsDNA or 63-mer RNA (Fig. 6A, B), ssDNA comparison E. F.-E., unpublished): produced perturbations of the same individual crosspeaks
- minimal concentration required to produce spectral perturbations ([1]; BEST-TROSY, 50 μM ^15N-labeled VIN3_123-326, 25 mM Tris pH 8, 150 mM NaCl, 1 mM DTT): 2 µM
- propensity for interaction with negatively charged polymers (in words) (VIN3 PHD superdomain): moderate propensity for interacting; also recorded: interact weakly; also recorded: can interact instead with negatively charged polymers
